Patent US20050271676A1, “Inducing cellular immune responses to human immunodeficiency virus-1 using peptide and nucleic acid compositions” (Epimmune Inc., priority 1993, published 2005)
No end group written: not given here.

How the values were obtained:
[1] = molecular target: T1, HLA-DRB5*0101 (DR2w2β2) (Homo sapiens, UniProt P01903+Q30154); experiment: biochemical; type: binding
T1 construct: expressed in transfected cells

[2] = molecular target: T2, HLA-DRB1*0301 (DR3) (Homo sapiens, UniProt P01903+P01911, A100K/A102G/A103R/A169T/F55Y/I96L/K41T/L162R/M171V/P40S/Q125H/Q178H/Q39Y/R42S/S66N/T106N/T262R/W38E/Y61H); experiment: purified HLA class II binding assay, DRB1*0301 (DR3), pH 4.5; settings: Table XXb, HIV DR 3a motif peptides
T2 construct: endogenous in cells; host or cells: MAT
T2 sequence (P01903 26-254 partner, other chains not shown): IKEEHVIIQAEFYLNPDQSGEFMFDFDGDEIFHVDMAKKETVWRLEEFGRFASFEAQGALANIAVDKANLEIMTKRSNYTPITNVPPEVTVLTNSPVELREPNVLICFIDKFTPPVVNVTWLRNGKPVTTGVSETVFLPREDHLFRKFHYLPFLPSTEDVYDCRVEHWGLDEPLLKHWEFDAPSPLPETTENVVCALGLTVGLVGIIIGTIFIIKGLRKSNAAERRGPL

[3] = molecular target: T3, HLA-DRB1*0401 (DR4w4) (Homo sapiens, UniProt P01903+P01911, A100K/A169T/F76Y/I96L/K127E/L162R/M171V/N62H/P40V/Q125Y/R42H/S133A/S149N/S66Y/V115G/V209L/W38E); experiment: purified HLA class II binding assay, DRB1*0401 (DR4w4); settings: for DR4w4 binding: HIV DR super motif peptides, unit not given
T3 construct: endogenous in cells; host or cells: Preiss
T3 sequence (P01903 26-254 partner, other chains not shown): as above

[4] = molecular target: T4, HLA-DRB1*1101 (DR5w11) (Homo sapiens, UniProt P01903+P01911, A100R/A169T/A87E/I96F/K41T/L162R/M171V/P40S/Q125H/Q178H/Q39Y/Q99D/R42S/S66Y/T262R/V115G/W38E); experiment: biochemical; type: binding
T4 construct: endogenous in cells
T4 sequence (P01903 26-254, other chains not shown): as the sequence (P01903 26-254 partner, other chains not shown) above

[5] = molecular target: HLA-A*2402 (Homo sapiens, UniProt P04439, D101N/D140Y/D185E/E176V/E190D/F33S/G103R/G107R/I119L/I121M/I306V/K335N/L105A/L180Q/L300P/N151K/N90K/Q86E/Q94H/R106L/R138H/R89G/T104I/T345S/V100E/W191G/Y123F); experiment: purified HLA class I binding assay, A*2402
[6] = molecular target: HLA-A*3101 (Homo sapiens, UniProt P04439, A270S/D185E/E176V/E277Q/F33T/G231S/G80R/H175R/I121M/I218V/I322F/K168Q/L300P/L318F/M331R/P217A/Q94H/R138Q/T323A/T345S/T97I/V358M); experiment: purified HLA class I binding assay, A*3101; settings: for A*3101 binding information: Table IX, unit not given
[7] = molecular target: T5, HLA-A*0301 (Homo sapiens, UniProt P04439); experiment: purified HLA class I binding assay, A*0301; settings: for A*0301 binding information: Table IX
T5 construct: endogenous in cells; host or cells: GM3107

[8] = molecular target: HLA-A*1101 (Homo sapiens, UniProt P04439, A114D/D185E/E176A/F33Y/L180Q/S129P/T187R); experiment: purified HLA class I binding assay, A*1101
[9] = molecular target: HLA-A*6801 (Homo sapiens, UniProt P04439, A269V/D185E/E176V/E277Q/E87N/F33Y/G231S/I121M/I166T/I218V/L180W/L300P/L318F/N151K/P208A/P217A/Q86R/R169H/T345S); experiment: purified HLA class I binding assay, A*6801; settings: for A*6801 binding information: Table IX, unit not given
[10] = molecular target: HLA-A*0203 (Homo sapiens, UniProt P04439, A173T/D140Y/D185E/D98H/E277Q/G131W/G231S/I119V/I121R/I166T/I218V/L180W/L300P/L318F/N151K/N90K/P208A/P217A/Q86G/Q94H/R138H/R169H/T345S); experiment: purified HLA class I binding assay, A*0203; settings: HIV A02 super motif peptides, Table VIII; unit not given
[11] = molecular target: HLA-A*0206 (Homo sapiens, UniProt P04439, D140Y/D185E/D98H/E176V/E277Q/F33Y/G131W/G231S/I119V/I121R/I166T/I218V/L300P/L318F/N151K/N90K/P208A/P217A/Q86G/Q94H/R138H/R169H/T345S); experiment: purified HLA class I binding assay, A*0206; settings: HIV A02 super motif peptides, Table VIII; unit not given
[12] = molecular target: HLA-A*0201 (Homo sapiens, UniProt P04439, D140Y/D185E/D98H/E176V/E277Q/G131W/G231S/I119V/I121R/I166T/I218V/L300P/L318F/N151K/N90K/P208A/P217A/Q86G/Q94H/R138H/R169H/T345S); experiment: purified HLA class I binding assay, A*0201; settings: HIV A02 super motif peptides, Table VIII; unit not given
[13] = molecular target: HLA-A*0202 (Homo sapiens, UniProt P04439, D140Y/D185E/D98H/E176V/E277Q/G131W/G231S/I119L/I121R/I166T/I218V/L180W/L300P/L318F/N151K/N90K/P208A/P217A/Q67R/Q86G/Q94H/R138H/R169H/T345S); experiment: purified HLA class I binding assay, A*0202; settings: HIV A02 super motif peptides, Table VIII; unit not given
[14] = molecular target: HLA-A*6802 (Homo sapiens, UniProt P04439, A269V/D140Y/D185E/E176V/E277Q/E87N/F33Y/G231S/I121R/I166T/I218V/L180W/L300P/L318F/N151K/P208A/P217A/Q86R/R138H/R169H/S129P/T345S/V36M); experiment: purified HLA class I binding assay, A*6802; settings: HIV A02 super motif peptides, Table VIII; unit not given
[15] = molecular target: T6, HLA-DRB1*0701 (DR7) (Homo sapiens, UniProt P01903+P01911, A100R/A102G/A103Q/D57E/D86V/E43K/F76Y/K127E/L162R/M171V/P40G/Q125H/Q99D/R33Q/R42Y/R54Q/S133A/S66F/T210M/V115G/Y107V/Y59L/Y89S); experiment: biochemical; type: binding
T6 construct: endogenous in cells; host or cells: Pitout

[16] = HIV A03 supermotif peptides, unit not given
[17] = HIV A03 supermotif peptides, Table IX, unit not given
[18] = HIV A24 motif peptides, purified HLA-A24 molecule, unit not given
[19] = HIV A24 motif peptides, binding value for purified HLA-A24 molecule, A*2401, unit not given
[20] = HIV A03 motif peptides, Table XVI, unit not given
[21] = HIV A03 super motif peptides, binding value
[22] = HIV A03 super motif peptides, binding value, unit not given
[23] = Table IX, HIV A03 super motif peptides, binding value, unit not given

Sequence: PPVVAKEIVASCDKC
- DR2w2β2 binding information [1]: −0.0021
- DR3 binding information [2]: −0.0130
- DR4w4 binding information ([3]; Table XXb, HIV DR 3a motif peptides): 0.0085
- DR5w11 binding information [4]: 0.0006

Sequence: PYNEWTLEL [Peptide 25.0128]
- IC50 [5]: 86 nM

Sequence: PYNLWILEL
- A*2401 (binding information) ([5]; HIV A24 supermotif peptides, A*2401, unit not given, so probably a relative binding value): 0.1400

Sequence: QARYLAVER
- A*3101 binding information ([6]; HIV A03 supermotif peptides): 0.0320
- A*0301 binding information [7, 16]: 0.0009
- A*1101 (binding information) [8, 17]: 0.0003
- A*6801 binding information ([9]; HIV A03 supermotif peptides): 0.0007

Sequence: QLLFIIIFRI
- A*0203 binding [10]: 0.0004
- A*0206 binding [11]: 0.0023
- A*0201 binding [12]: 0.0530
- A*0202 binding [13]: 0.0002
- A*6802 binding [14]: 0.0840

Sequence: QMAVFIIINF
- A*2401 (binding information) [5, 18]: 0.0190
- A*2401 (binding information) ([5]; HIV A24 supermotif peptides, Table X, A*2401, unit not given): 0.0190

Sequence: QMVIIQAISPR
- A*3101 binding information ([6]; HIV A03 supermotif peptides): 0.0740
- A0301 (binding information) ([7]; HIV A03 motif peptides, Table XVI, binding value unit not given): 0.0260
- A*0301 binding information [7, 16]: 0.0260
- A*1101 (binding information) [8, 17]: 0.0010
- A*6801 binding information ([9]; HIV A03 supermotif peptides): 0.0430

Sequence: RFAVPGLL
- A*2401 (binding information) [5, 19]: 0.0100

Sequence: TLFCASDAK [1273.06]
- IC50 [6]: 10600 nM
- IC50 [9]: 191 nM

Sequence: TVQCTIIGIK
- A*3101 binding information ([6]; HIV A03 supermotif peptides): 0.0042
- A0301 (binding information) [7, 20]: 0.0021
- A*0301 binding information [7, 16]: 0.0021
- A*1101 (binding information) [8, 17]: 0.0460
- A*6801 binding information ([9]; HIV A03 supermotif peptides): 0.0190

Sequence: TVQCTIIGIR
- A*3101 binding information ([6]; HIV A03 supermotif peptides): 0.0880
- A0301 (binding information) [7, 20]: 0.0008
- A*0301 binding information [7, 16]: 0.0008
- A*1101 (binding information) [8, 17]: 0.0008
- A*1101 (binding information) ([8]; Table XVII, HIV A11 motif peptides, binding value for purified HLA-A*1101, unit not given): 0.0008
- A*6801 binding information ([9]; HIV A03 supermotif peptides): 0.0120

Sequence: VIFMFSALSEGATPQ
- DR2w2β2 binding [1]: −0.0014
- DR7 binding [15]: −0.0007
- DR4w4 binding [3]: 0.0058
- DR5w11 binding [4]: −0.0010

Sequence: VTVYYGVPVWKEATI
- DR2w2β2 binding [1]: 0.0270
- DR7 binding [15]: 0.0160
- DR4w4 binding [3]: 0.0071
- DR5w11 binding [4]: 0.0021

Sequence: VWKEATITLF
- A*2401 (binding information) [5, 19]: 0.2700

Sequence: WMGYELIIPDK
- A*3101 binding information [6, 21]: 0.0009
- A*0301 binding information [7, 22]: 0.0005
- A*1101 (binding information) [8, 23]: 0.0004
- A*1101 (binding information) ([8]; Table XVII, HIV A11 motif peptides, binding value A*1101, unit not given): 0.0004
- A*6801 binding information [9, 21]: 0.0003

Sequence: YLAWVPAIIK
- A*3101 binding information [6, 21]: 0.0550
- A0301 binding ([7]; HIV A03 motif peptides, Table XVI, column A0301, unit not given): 0.0770
- A*0301 binding information [7, 22]: 0.0770
- A*1101 (binding information) [8, 23]: 0.0570
- A*1101 (HIV A11 Motif Peptides with Binding Information) ([8]; binding value to purified HLA-A*1101 in Table XVII, unit not given): 0.0570
- A*6801 binding information [9, 21]: 4.0000

Sequence: YWQATWIPE
- A*2401 (binding information) [5, 18]: 0.0660
- A*2401 (binding information) ([5]; HIV A24 supermotif peptides, binding value printed without unit in Table X): 0.0660
